From article PMC5121451, “NADP-Dependent Aldehyde Dehydrogenase from Archaeon Pyrobaculum sp.1860: Structural and Functional Features” (Archaea, 2016)

Legend:
AlDHPyr1147 [1] = target: T1, AlDHPyr1147 (Pyrobaculum ferrireducens, UniProt G7VCG0); assay: spectrophotometric NADPH formation at […] nm; assay type: biochemical; details: 0.084 μM enzyme, 0.3 mM NADP+, 9 mM isobutyraldehyde, pH 8.8, 60 °C
T1 construct: gene P186_1147; homotetramer
T1 sequence (G7VCG0 1-491): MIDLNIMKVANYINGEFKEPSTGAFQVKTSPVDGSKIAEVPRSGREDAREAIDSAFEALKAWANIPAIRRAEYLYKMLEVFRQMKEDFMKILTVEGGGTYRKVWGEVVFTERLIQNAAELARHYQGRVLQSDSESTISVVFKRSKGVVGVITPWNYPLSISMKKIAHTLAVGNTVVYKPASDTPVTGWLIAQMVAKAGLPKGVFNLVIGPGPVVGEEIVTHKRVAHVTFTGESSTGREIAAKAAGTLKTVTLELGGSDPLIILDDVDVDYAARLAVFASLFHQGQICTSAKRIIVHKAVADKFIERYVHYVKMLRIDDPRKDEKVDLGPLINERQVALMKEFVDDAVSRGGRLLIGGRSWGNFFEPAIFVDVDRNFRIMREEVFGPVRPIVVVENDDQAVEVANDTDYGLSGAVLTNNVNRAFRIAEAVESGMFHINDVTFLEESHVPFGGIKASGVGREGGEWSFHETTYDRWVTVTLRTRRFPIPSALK

AlDHPyr1147 [2] = target: T1, AlDHPyr1147; assay: spectrofluorimetric titration of apo form; assay type: binding
Description: spectrofluorimetric titration of apo form on AlDHPyr1147 | spectrofluorimetric titration of the apo form of AlDHPyr1147 with NADP+

[3] = target: NADP-dependent aldehyde dehydrogenase AlDHPyr1147 from archaeon Pyrobaculum sp.1860 (Pyrobaculum sp.1860); assay: crystal structure; apo form, three binary complexes with coenzyme (Holo-1, Holo-2, Holo-3) and ternary complex with NADP+ and isobutyraldehyde; space group P2(1)2(1)2, eight subunits (two tetramers) per asymmetric unit
[4] = target: NADP-dependent aldehyde dehydrogenase AlDHPyr1147 from archaeon Pyrobaculum sp.1860 (Pyrobaculum sp.1860); assay: SEC; gel filtration of the apo form (coenzyme removed by heating at 85°C for 10-15 min), at room temperature
[5] = target: NADP-dependent aldehyde dehydrogenase AlDHPyr1147 from archaeon Pyrobaculum sp.1860 (Pyrobaculum sp.1860); assay: SEC; gel filtration of AlDHPyr1147 as isolated (with bound coenzyme); analytical column 10/300 GL, 50 mM sodium pyrophosphate pH 8.8, 100 mM NaCl, 22°C
purified protein [6] = substrate: CC(C)C=O; assay: purified protein; details: 0.3 mM NADP+, 50 mM sodium pyrophosphate pH 8.8, 100 mM NaCl, 60 °C
purified protein [7] = substrate: O=C[C@H](O)CO; assay: purified protein; details: 0.3 mM NADP+, 50 mM sodium pyrophosphate pH 8.8, 100 mM NaCl, 60 °C
purified protein [8] = substrate: NC(=O)c1ccc[n+]([C@@H]2O[C@H](COP(=O)(O)OP(=O)(O)OC[C@H]3O[C@@H](n4cnc5c(N)ncnc54)[C@H](OP(=O)(O)O)[C@@H]3O)[C@@H](O)[C@H]2O)c1; assay: purified protein; assay type: biochemical, Pyrobaculum ferrireducens; details: 60 °C, isobutyraldehyde oxidation, standard assay, 50 mM sodium pyrophosphate pH 8.8, 100 mM NaCl, varied: cofactor
purified protein [9] = substrate: CCC=O; assay: purified protein; assay type: biochemical, Pyrobaculum ferrireducens; details: 0.3 mM NADP+, 50 mM sodium pyrophosphate pH 8.8, 100 mM NaCl, 60 °C

NC(=O)C1=CN([C@@H]2O[C@H](COP(=O)(O)OP(=O)(O)OC[C@H]3O[C@@H](n4cnc5c(N)ncnc54)[C@H](OP(=O)(O)O)[C@@H]3O)[C@@H](O)[C@H]2O)C=CC1 [NADPH]
% decrease in activity at 0.08 mM (AlDHPyr1147 [1]): 20%

NC(=O)c1ccc[n+]([C@@H]2O[C@H](COP(=O)(O)OP(=O)(O)OC[C@H]3O[C@@H](n4cnc5c(N)ncnc54)[C@H](OP(=O)(O)O)[C@@H]3O)[C@@H](O)[C@H]2O)c1 [NADP+]
Kd (AlDHPyr1147 [2]): 600 ± 80 nM

NADP-dependent aldehyde dehydrogenase AlDHPyr1147 from archaeon Pyrobaculum sp.1860 (enzyme)
stoichiometry N [3]: 4 | stoichiometry N [4]: 4 | stoichiometry N [5]: 4

B1: AlDHPyr1147 (Pyrobaculum ferrireducens) (protein)
chain: MIDLNIMKVANYINGEFKEPSTGAFQVKTSPVDGSKIAEVPRSGREDAREAIDSAFEALKAWANIPAIRRAEYLYKMLEVFRQMKEDFMKILTVEGGGTYRKVWGEVVFTERLIQNAAELARHYQGRVLQSDSESTISVVFKRSKGVVGVITPWNYPLSISMKKIAHTLAVGNTVVYKPASDTPVTGWLIAQMVAKAGLPKGVFNLVIGPGPVVGEEIVTHKRVAHVTFTGESSTGREIAAKAAGTLKTVTLELGGSDPLIILDDVDVDYAARLAVFASLFHQGQICTSAKRIIVHKAVADKFIERYVHYVKMLRIDDPRKDEKVDLGPLINERQVALMKEFVDDAVSRGGRLLIGGRSWGNFFEPAIFVDVDRNFRIMREEVFGPVRPIVVVENDDQAVEVANDTDYGLSGAVLTNNVNRAFRIAEAVESGMFHINDVTFLEESHVPFGGIKASGVGREGGEWSFHETTYDRWVTVTLRTRRFPIPSALK
notes: homotetramer
Km (purified protein [6]): 0.020 ± 0.003 M | kcat (purified protein [6]): 4.1 s⁻¹ | kcat/Km (purified protein [6]): 200 M⁻¹ s⁻¹ | Km (purified protein [7]): 0.015 ± 0.006 M | kcat (purified protein [7]): 1.2 s⁻¹ | kcat/Km (purified protein [7]): 80 M⁻¹ s⁻¹ | Km (purified protein [8]): 20.9 ± 0.1 µM | Km (purified protein [9]): 0.021 ± 0.0025 M | kcat (purified protein [9]): 2.9 ± 0.16 s⁻¹ | kcat/Km (purified protein [9]): 140 ± 30 M⁻¹ s⁻¹
